{"source": "paper doi:10.1101/2022.10.31.514592", "about": "(bioRxiv, 2022)", "key": {"SARS-CoV-2 WT RBD": {"target": "SARS-CoV-2 WT RBD (SARS-CoV-2, wildtype (Wuhan-Hu-1 type), UniProt P0DTC2)", "experiment": "ELISA"}, "SARS-CoV-1 RBD": {"target": "SARS-CoV-1 RBD (SARS-CoV-1, strain , UniProt P59594)", "experiment": "ELISA"}}}
{"binder": "S728-1157 IgG (antibody, V domains shown) VH: EVQLVESGGGLVQPGGSLRLSCAASGLLVSRNYMNWVRQAPGKGLEWVSIIYSGGSTFYADSVEGRFTISRDESKNTLYLQMNSLRTDDTAVYYCARDLSDYGGIDCWGQGTLVTVSS VL: ELTQPLSVSMALGQTARISCGGDNVGSQNVHWYQQRPGQAPVLVIYRDSNRPSGIPERFSGSKSGNTATLTISRAQAGDEADYYCQVWDSSTVAFGGGTKLTVL", "values": [{"measurement": "binding result", "setting": "SARS-CoV-2 WT RBD", "result": "binds"}]}
{"binder": "S626-161 IgG (antibody, V domains shown) VH: QLQLQESGPGLVKPSEALSLTCTVSGGSISTSNYYWGWIRQPPGKGLEWIGSIYYRGGTHYNPSLKTRVTISVDTSKNQFSLKLSSVTAADTAVYYCARHTYFYDIVGAAVWEPFDIWGQGTMVTVSS VL: not shown", "values": [{"measurement": "binding result", "setting": "SARS-CoV-2 WT RBD", "result": "binds"}, {"measurement": "binding result", "setting": "SARS-CoV-1 RBD", "result": "binds"}]}
{"binder": "S451-1140 IgG (antibody, V domains shown) VH: EVQLVESGGGLVPPGGSLRLSCAASGFIFSNYAMTWVRQAPGKGLEWVSAISGGGGSTDYADSVKGRFTISRDNSKNTLYLQMNSLRAEDTAVYYCAKDLFGSGWSLFDNWGQGTLVTVSS VL: not shown", "values": [{"measurement": "binding result", "setting": "SARS-CoV-2 WT RBD", "result": "binds"}]}
